Results reported in US20240368285A1 (HEFEI TG IMMUNOPHARMA, published 2024).

What was measured:
[1] = target: T1, MICA protein (SPR analyte) (human, UniProt Q29983 24-308, limits assumed); assay: SPR, Biacore 8K, antibody captured on protein A chip, MICA as analyte
T1 construct: also called major histocompatibility complex class I chain related polypeptide A
T1 sequence: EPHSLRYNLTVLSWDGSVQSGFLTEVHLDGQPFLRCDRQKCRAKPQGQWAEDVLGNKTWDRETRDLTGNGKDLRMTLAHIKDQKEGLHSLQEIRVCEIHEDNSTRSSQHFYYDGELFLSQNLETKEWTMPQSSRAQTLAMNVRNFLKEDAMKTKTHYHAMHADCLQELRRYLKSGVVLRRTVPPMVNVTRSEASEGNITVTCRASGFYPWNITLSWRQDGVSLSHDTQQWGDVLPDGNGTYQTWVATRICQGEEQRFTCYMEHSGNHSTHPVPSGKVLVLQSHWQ
Procedure: In a Biacore 8K (Cytiva) system, the antibody was diluted to a concentration of 10 µg/mL with running buffer (HBS-EP), and the antibody was conjugated onto a protein A (Cytiva, 29127556) chip at a flow rate of […].
Kinetic and affinity data of binding of the maternal antibody h5A1 and the affinity maturation antibody h5A1002 and MICA were detected.

MICA005α3-Fc = target: T2, MICA005α3-Fc (human); assay: ELISA on coated MICA*005 α3-Fc (1 µg/ml), HRP anti-human Fab secondary, OD450
T2 construct: also called MICA*005-Fc; domain α3 of MICA-005 Fc fusion protein
Procedure: After the antibodies were added, signal intensity was used for judging the binding characteristics of the antibodies and MICA and MICB.
The fusion proteins (produced in the Applicant's laboratory; an amino acid sequence of MICA002α3-Fc is as set forth in SEQ ID NO: 22; an amino acid sequence of MICA005α3-Fc is as set forth in SEQ ID NO: 24; an amino acid sequence of MICA008α3-Fc is as set forth in SEQ ID NO: 25; an amino acid sequence of MICA004α3-Fc is as set forth in SEQ ID NO: 23; an amino acid sequence of MICB001α3-Fc is as set forth in SEQ ID NO: 26; and an amino acid sequence of MICB005α3-Fc is as set forth in SEQ ID NO: 27) were diluted to a concentration of 1 μg/ml with PBS and then added into a 96-well plate in a volume of 100 μl/well. The plate was placed at 4° C. overnight. The PBS in the 96-well plate was removed by sucking. After the plate was washed with PBST (that is, PBS having a pH value of 7.2 included 0.1 volume % of Tween 20) for 6 times, PBS containing 10% of BSA was added in a volume of 200 μl/well. The plate was incubated at 37° C. for 2 hours for blocking. The blocking solution was removed. […]

MICA008α3-Fc = target: T3, MICA008α3-Fc (human); assay: ELISA on coated MICA*008 α3-Fc (1 µg/ml), HRP anti-human Fab secondary, OD450
T3 construct: also called MICA*008-Fc; domain α3 of MICA-008 Fc fusion protein

MICA004α3-Fc = target: T4, MICA004α3-Fc (human); assay: ELISA on coated MICA*004 α3-Fc (1 µg/ml), HRP anti-human Fab secondary, OD450
T4 construct: also called MICA*004-Fc; domain α3 of MICA-004 Fc fusion protein

[2] = target: T5, MICA on human tumor cells (A-375, A549, HCT-15, MDA-MB-231) (human, UniProt Q29983 24-383); assay: flow cytometry on A-375 cells, Alexa-647 goat anti-human secondary, % binding ratio
T5 construct: whole, on cells
T5 sequence (looked up): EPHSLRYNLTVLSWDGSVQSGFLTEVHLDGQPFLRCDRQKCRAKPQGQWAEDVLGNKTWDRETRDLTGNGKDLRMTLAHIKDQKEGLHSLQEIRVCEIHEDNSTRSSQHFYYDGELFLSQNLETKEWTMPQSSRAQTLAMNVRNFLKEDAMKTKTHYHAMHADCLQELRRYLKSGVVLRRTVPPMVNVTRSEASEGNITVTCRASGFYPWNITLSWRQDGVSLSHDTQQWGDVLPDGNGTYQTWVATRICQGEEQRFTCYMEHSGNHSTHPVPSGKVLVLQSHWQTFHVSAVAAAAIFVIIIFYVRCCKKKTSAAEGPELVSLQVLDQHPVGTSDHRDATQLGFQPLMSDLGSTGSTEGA
Procedure: (2) Tumor cells were diluted to a density of 2×10⁶/mL with PBS and added into a 1.5 ml EP tube in a volume of 100 l/tube. 10 l/tube of goat serum was added into the EP tube; and blocking was conducted at 4° C. for 30 min. […] The tube was incubated at 4° C. for 30 min. 1 mL of PBS was added into the EP tube, and centrifugation was conducted 4° C. at a rate of 3,500 rpm for 5 min. The supernatant was removed. Then, the EP tube was washed once with the PBS, and the supernatant was removed after centrifugation. The cells were resuspended with PBS in a volume of 100 l/tube. An Alexa-647 labeled goat anti-human secondary antibody (purchased from Jackson lab) was added into the tube in a volume of 1 l/tube, and the tube was incubated in the dark at 4° C. for 30 min. The tube was washed twice with PBS, and the supernatant was removed after centrifugation. The cells were resuspended with the PBS in a volume of 200 l/tube, and detection was conducted by a flow cytometer. The results are as shown in FIG. 17A and FIG. 17B, FIG. 18A and FIG. 18B, FIG. 19A and FIG. 19B, and FIG. 20A and FIG. 20B.

T3 sequence (chain, as listed by the source limits assumed): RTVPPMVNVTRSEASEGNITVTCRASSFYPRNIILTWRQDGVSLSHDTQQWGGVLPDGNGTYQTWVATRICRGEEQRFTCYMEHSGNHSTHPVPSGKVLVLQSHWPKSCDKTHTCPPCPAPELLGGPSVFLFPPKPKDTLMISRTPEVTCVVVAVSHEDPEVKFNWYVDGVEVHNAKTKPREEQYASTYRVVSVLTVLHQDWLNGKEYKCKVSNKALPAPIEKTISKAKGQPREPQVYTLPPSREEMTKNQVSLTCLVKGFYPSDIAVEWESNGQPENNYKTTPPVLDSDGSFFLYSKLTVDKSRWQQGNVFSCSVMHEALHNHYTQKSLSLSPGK
T2 sequence (chain, as listed by the source limits assumed): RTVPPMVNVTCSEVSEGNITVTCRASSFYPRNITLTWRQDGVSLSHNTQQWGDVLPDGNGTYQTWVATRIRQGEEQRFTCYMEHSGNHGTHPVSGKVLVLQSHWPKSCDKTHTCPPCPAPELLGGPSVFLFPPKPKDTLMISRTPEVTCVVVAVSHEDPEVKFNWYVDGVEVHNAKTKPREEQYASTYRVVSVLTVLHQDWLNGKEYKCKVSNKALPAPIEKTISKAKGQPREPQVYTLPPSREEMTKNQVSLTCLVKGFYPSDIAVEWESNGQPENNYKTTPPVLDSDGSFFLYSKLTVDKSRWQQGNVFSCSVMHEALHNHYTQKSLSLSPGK
T4 sequence (chain, as listed by the source limits assumed): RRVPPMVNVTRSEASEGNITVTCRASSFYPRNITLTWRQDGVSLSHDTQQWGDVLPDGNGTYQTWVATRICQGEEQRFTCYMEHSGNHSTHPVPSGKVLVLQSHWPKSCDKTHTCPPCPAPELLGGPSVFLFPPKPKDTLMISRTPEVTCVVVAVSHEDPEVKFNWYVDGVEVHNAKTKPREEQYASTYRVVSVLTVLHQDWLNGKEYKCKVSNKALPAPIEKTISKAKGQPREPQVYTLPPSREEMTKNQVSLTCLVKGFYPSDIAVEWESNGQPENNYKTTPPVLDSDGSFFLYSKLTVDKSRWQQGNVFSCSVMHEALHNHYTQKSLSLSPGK

B1: affinity maturation antibody h5A1002 (antibody, V domains shown)
VH: QVQLQESGPGLVKPSETLSLTCTVSGFSLTTYGGHWIRQPPGKGLEWIGMIWTDGWTDYNAAFISRVTISVDTSKNQFSLKLSSVTAADTAVYYCARKGHGYYYAMDYWGQGTLVTVSS
VL: EIVLTQSPGTLSLSPGERATLSCTASSSVSSSYLHWYQQKPGQAPRLLIYSTSNLISGIPDRFSGSGSGTDFTLTISRLEPEDFAVYYCHQYHRSPFTFGQGTKLEIKR
notes: Human IgG1, kappa; also called h5A1002-hIgG1
[1]
  Kd: 5.4 nM
  koff: 0.000129 s⁻¹
  kon: 23800 M⁻¹ s⁻¹
MICA005α3-Fc
  EC50 (read off the curve): ~0.07 µg/mL
MICA008α3-Fc
  EC50 (read off the curve): ~0.06 µg/mL
MICA004α3-Fc
  EC50 (read off the curve): ~0.04 µg/mL
[2]
  EC50 (read off the curve): ~0.3 µg/mL
